The target in this assay is DC-SIGN-Fc (human) (UniProt Q9NNX6).
UniProt Q9NNX6, sequence (Q9NNX6 59-404): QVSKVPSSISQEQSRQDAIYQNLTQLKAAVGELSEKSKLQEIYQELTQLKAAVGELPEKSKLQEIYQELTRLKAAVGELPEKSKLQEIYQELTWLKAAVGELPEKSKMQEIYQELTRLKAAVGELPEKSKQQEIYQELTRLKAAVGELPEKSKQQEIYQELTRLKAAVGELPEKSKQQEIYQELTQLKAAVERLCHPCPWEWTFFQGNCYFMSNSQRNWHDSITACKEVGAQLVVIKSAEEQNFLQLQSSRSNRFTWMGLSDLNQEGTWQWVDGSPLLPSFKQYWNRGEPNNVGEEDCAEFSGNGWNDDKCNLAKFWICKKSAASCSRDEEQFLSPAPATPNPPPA

With “HIV-1 JR-FL gp120 (recombinant monomeric gp120; mock-treated form M-gp120) (natural protein)”, the IL-10 induction in iMDDCs by JR-FL gp120 (3 μg/ml) at 24 h after pre-incubation of the cells with anti-DC-SIGN mAb AZN-D1 (40 μg/ml); DC-SIGN here is the whole receptor on MDDCs is 50 % reduction.

The values above are taken from PMC2048530.
